Measured values reported in patent US20210322564A1 (ADC THERAPEUTICS, published 2021).

Molecular target: T1, CD19 (human, UniProt P15391 20-556)
T1 sequence (looked up): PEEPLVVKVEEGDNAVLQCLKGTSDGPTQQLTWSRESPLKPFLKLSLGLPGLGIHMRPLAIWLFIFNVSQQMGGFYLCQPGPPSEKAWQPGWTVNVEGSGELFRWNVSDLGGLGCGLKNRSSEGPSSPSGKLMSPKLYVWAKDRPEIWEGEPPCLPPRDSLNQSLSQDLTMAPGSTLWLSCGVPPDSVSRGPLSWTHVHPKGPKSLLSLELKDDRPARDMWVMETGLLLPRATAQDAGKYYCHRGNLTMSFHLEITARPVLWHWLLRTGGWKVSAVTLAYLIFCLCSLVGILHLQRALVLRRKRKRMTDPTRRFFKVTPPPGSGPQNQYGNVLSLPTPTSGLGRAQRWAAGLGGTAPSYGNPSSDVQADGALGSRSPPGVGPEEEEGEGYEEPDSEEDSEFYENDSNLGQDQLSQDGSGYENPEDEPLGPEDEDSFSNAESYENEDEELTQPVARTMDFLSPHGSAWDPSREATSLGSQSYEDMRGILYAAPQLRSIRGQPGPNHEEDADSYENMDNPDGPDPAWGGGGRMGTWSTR
Assay: cell-based or functional assay

B1: ADCx19 (antibody, V domains shown)
VH: QVQLVQPGAEVVKPGASVKLSCKTSGYTFTSNWMHWVKQAPGQGLEWIGEIDPSDSYTNYNQNFQGKAKLTVDKSTSTAYMEVSSLRSDDTAVYYCARGSNPYYYAMDYWGQGTSVTVS
VL: EIVLTQSPAIMSASPGERVTMTCSASSGVNYMHWYQQKPGTSPRRWIYDTSKLASGVPARFSGSGSGTSYSLTISSMEPEDAATYYCHQRGSYTFGGGTKLEIK
modifications: pyrrolobenzodiazepine (PBD) dimer warhead attached via a cleavable linker, DAR 2+/-0.3; attachment residues not stated
IC50, MTT proliferation assay, 96 h exposure, median over 48 B-cell lymphoma cell lines: 4 pM
